Measured values reported in patent publication US20150361450, “VECTOR FOR THERAPY OF MITOCHONDRIAL DISEASE” (UNIVERSITE DE STRASBOURG, published 2015).

Molecular target: preKARS2 (precursor of human mitochondrial lysyl-tRNA synthetase) (Homo sapiens, UniProt Q15046-2 Q15046-2:1-625)
Assay: EMSA; 10 mM MgCl2, 30 C
Conditions: tags: C-terminal 6xHis, thrombin site and N-terminal 6xHis deleted, label: 5'-32P
Experimental: Purified RNA was dephosphorylated with alkaline phosphatase (Boehringer Mannheim) and labeled at the 59-end with c-32P-ATP using T4 polynucleotide kinase (Promega). The labeled RNA was denatured at 100° C. and then slowly cooled down to the room temperature. For RNA binding assays, the appropriate amount of protein and labeled RNA were mixed in […] of the buffer containing 20 mM Tris-HCl pH 7.5, 150 mM NaCl, 10 mM MgCl2, 5 mM DTT, 10% glycerol, 0.1 mg/ml BSA and incubated at 30° C. for 15 min. The mixture was separated by native 8% PAGE in […] buffer (pH 8.3) and 5% glycerol, followed by Typhoon-Trio (GE Healthcare) scanning and quantification as described in.

preKARS2 (precursor of human mitochondrial lysyl-tRNA synthetase), sequence (Q15046 other isoform, or with tags, fused parts or gaps): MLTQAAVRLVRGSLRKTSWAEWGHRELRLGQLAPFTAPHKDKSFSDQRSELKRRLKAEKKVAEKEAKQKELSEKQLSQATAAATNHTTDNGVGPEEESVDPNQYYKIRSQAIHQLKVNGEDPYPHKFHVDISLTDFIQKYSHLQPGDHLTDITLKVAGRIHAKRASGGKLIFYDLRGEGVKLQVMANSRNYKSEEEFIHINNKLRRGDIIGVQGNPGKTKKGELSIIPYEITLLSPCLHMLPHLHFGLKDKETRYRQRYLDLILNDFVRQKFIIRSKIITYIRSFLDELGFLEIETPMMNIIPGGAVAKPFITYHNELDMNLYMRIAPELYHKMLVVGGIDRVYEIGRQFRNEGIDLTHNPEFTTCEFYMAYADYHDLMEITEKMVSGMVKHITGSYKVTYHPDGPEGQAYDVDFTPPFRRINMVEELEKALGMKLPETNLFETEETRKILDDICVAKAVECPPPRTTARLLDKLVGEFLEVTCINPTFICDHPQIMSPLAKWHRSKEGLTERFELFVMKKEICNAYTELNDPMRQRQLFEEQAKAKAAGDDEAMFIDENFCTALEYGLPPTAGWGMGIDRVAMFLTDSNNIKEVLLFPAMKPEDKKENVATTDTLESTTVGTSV

GCGCAAUCGGUAGCGCCUCUUUACAGUGCUUAGUUCUC (ssRNA) [HD RNA]
binding result (D-arm only, F-hairpin deleted): no binding

GGUCUUUACAGUGCUUACUUCUCGAGCCCCCUACAGGGCUCCA (ssRNA) [HF RNA]
binding result (F-hairpin only, D-arm deleted): no binding
